3 molecules from paper PMC3919607 (Nucleic Acids Research, 2013) can be followed below.

The labels stand for the following.
T1: His6Rsa1p230–381 (S. cerevisiae, UniProt Q08932 230-381)
T1 sequence (looked up): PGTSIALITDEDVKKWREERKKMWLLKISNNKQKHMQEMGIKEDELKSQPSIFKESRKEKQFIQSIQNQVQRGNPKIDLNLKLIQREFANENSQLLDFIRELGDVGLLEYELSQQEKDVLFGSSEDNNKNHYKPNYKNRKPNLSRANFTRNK

T2: His6-tagged WT Snu13p (co-expression) (S. cerevisiae, UniProt P39990 1-126)
T2 sequence (looked up): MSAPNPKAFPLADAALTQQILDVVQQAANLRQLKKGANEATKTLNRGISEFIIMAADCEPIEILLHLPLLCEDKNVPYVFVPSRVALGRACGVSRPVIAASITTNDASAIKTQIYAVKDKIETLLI

B1: Snu13p (recombinant, GST cleaved off) (natural protein, S. cerevisiae)
chain: GPMSAPNPKAFPLADAALTQQILDVVQQAANLRQLKKGANEATKTLNRGISEFIIMAADCEPIEILLHLPLLCEDKNVPYVFVPSRVALGRACGVSRPVIAASITTNDASAIKTQIYAVKDKIETLLI
B2: full-length Rsa1p (co-expression) (natural protein, S. cerevisiae, UniProt Q08932 1-381, looked up)
chain: MNYNNFENSKGDGHSRLPKPTYSGTLSDGYDESKIKRQKTDSAFNAAYSPHMYPNSPYYEGSWNTGYTPQLHHVAPHNQYFHPIQPSTQYNYTSPPNYTENYIPPVHQNISYAPALNLQKWPSSYCENTQALKNDKDYQTSISYEDVAIPTVKEIQLIEKNRGKDTFMNEISPVPSSKDQASAEPTEIPRKDPELANSNAEDDHNNLGLEDDDRDEQLESEGLGKVVLVPGTSIALITDEDVKKWREERKKMWLLKISNNKQKHMQEMGIKEDELKSQPSIFKESRKEKQFIQSIQNQVQRGNPKIDLNLKLIQREFANENSQLLDFIRELGDVGLLEYELSQQEKDVLFGSSEDNNKNHYKPNYKNRKPNLSRANFTRNK

One assay addresses T1, His6Rsa1p230–381. Briefly: native gel or EMSA. A general note: A gel shift assay detects complexes by their altered migration in electrophoresis.
In assay [1] the target is T2, His6-tagged WT Snu13p (co-expression). Briefly: pull-down.
Assay [2] addresses B1. As to the kind of experiment: ITC. A general note: ITC needs no label: the signal is the heat of the interaction.

B1: in the assay with His6Rsa1p230–381, the binding result is on record as “binds”.

By stoichiometry N is commonly meant the number of molecules, sites or subunits per partner or assembly. For the molecule B2, the “stoichiometry N” value in assay [1] is approximately 1.

In general, Kd refers to the concentration at which binding is half-saturated. With TDEDVKKWREERKKMWLLKISN (peptide, UniProt Q08932 238-259, looked up) [synthetic peptide Rsa1p238–259], the Kd in assay [2] stood at 18 ± 1 µM.
